Assay: soluble on expression in E. coli; label from the status in PepcDB or PDB records

| Sequence | soluble on expression in E. coli |
| --- | --- |
| GKPFSYGASFNLTFARNRYLRYPDSPNTVEWRKRTGRSVDASVVWVAEGLFRSEEEIDNSAWYGTRPNVGDIKYKDLNGDGKIDEDDRTRVGRGNRPELTYGLNLNCAWNGFDLSAQFTGGALFDVSLTGTYYNGYDDNTVWTQAFKEGANSPLYLVQNAYTTENPNGTFPRLTLGNQGHGGDNGLASTFWLRNGRYLRLKSAQLGYTFPKKWMSPVGIQNLRIYVEGSNLFTISGLPDGIDPESPGVNNGYYPQQRTIMGGITLTF | not soluble |
| GKQNTSAIEALAPHSVVFTTAGGSSPEFTSSEISEQQAERWKDSTPLGVSQTRIESDQNANTTAVMGLPEGTPLPDSVGGFIEQGALLPAELADFLHVRA | not soluble |
| GKRLSFEDGLVLYQTKDLPTLMRLANLVRERKHGHKTYFVHSIRVSQTNICYVGCTFCAFQRRFGEEGAWDWDVDEVVAWVKERYQPGLTEIHLTAGHHPKRPFAYYLDLVRALKENFPGVQVKAWTAAEIHHFSKIARLPYREVLKALKEAGLDAMPGGGAEIFAERVRRKIARAKVSAEGWLEIHRTAHELGIPTNATMLYGHIETLEERLDHMDRLRRLQDETGGFMSFIPLAFQPDGNQLARELGKKEFTTGLDDLRNLAVARLYLDNFPHIKGYWATLTPELAQVSLDWGVTDVDGTLIEERIVHMAGSPTPQGLTKRELARIILMAGRIPVER | not soluble |
| GLMALLMVFAVSIGGLTQIVPLFFQDVTNKPVEGMKPYTALQLEGRDVYIREGCVGCHSQMIRPFRAETERYGHYSVAGESVWDHPFLWGSKRTGPDLARVGGRYSDDWHRAHLYNPRNVVPESKMPSYPWLVAQPVDNSHTDVKMRTLRTLGVPYTDDDIAGAREAVKGKTEMDALVAYLQVLGT | not soluble |
| GLNFPTYDGKDRVVSLSEKNFKQVLKKYDLLCLYYHEPVSSDKVTQKQFQLKEIVLELVAQVLEHKAIGFVMVDAKKEAKLAKKLGFDEEGSLYILKGDRTIEFDGEFAADVLVEFLLDLIEDPVEIISSKLEVQAFERIEDYIKLIGFFKSEDSEYYKAFEEAAEHFQPYIKFFATFDKGVAKKLSLKMNEVDFYEPFMDEPIAIPNKPYTEEELVEFVKEHQRPTLRRLRPEEMFETWEDDLNGIHIVAFAEKSDPDGYEFLEILKQVARDNTDNPDLSILWIDPDDFPLLVAYWEKTFKIDLFRPQIGVVNVTDADSVWMEIPDDDDLPTAEELEDWIEDVLSGKINTEDDDEDDDDDDNSDEEDNDDSDDDDDE | soluble |
| GLNSVIKPTKYKPVPDEEPNSTDVEETLKRIQNNDPDLEEVNLNNIMNIPVPTLKACAEALKTNTYVKKFSIVGTRSNDPVAFALAEMLKVNNTLKSLNVESNFISGSGILALVEALQSNTSLIELRIDNQSQPLGNNVEMEIANMLEKNTTLLKFGYHFTQQGPRLRASNAMMNNNDLVRKRRL | soluble |
| GMADPKELQDKFWKALKSDRTVMLGLDGVEDGHARPMTAQIEGDSGGPIWFFTSKDNALIAMLGQGRRVIGAFSSKGHDLFASISGSLREDTDPAVVDRLWNPYVAAWYEGGKDDPKLALLRLDADHAQIWLNGSSLLAGIKVLLGV | soluble |
| GMASIKGEVDEIANYGNLKITKEEERVNITGDLEKFSSLEEGTIVTRFNMNDTSIQSLIGLSDGNKANNYFSLYVSGGKVGYELRRQEGNGDFNVHHSADVTFNRGINTLALKIEKGIGAKIFLNGSLVKTVSDPNIKFLNAINLNSGFIGKTDRANGYNEYLFRGNIDFMNIYDKPVSDNYLLRKTGETK | soluble |
| GMDDLTNLAARLRLLEDREEIRELIARYGPLADSGDAEALSELWVEDGEYAVVGFATAKGRAAIAALIDGQTHRALMADGCAHFLGPATVTVEGDTATARCHSVVFRCVSGTFGSHRVSANRWTFRRTPAGWRAVRRENALLDGSAAARALLQFR | soluble |
| GMDMKKHGLSIGINRIESVFFVTLKAIGTLTHEDYLVITPMLEGALSQVDQPKVSLFLDATELDGWDLRAAWDDLKLGLKHKSEFERVAILGNKDWQEWAAKIGSWFIAGEIKYFEDEDDALKWLRY | soluble |
| GMELDDAYANGAYIEGAADYPPRWAASAEDFRNSLQDRARLNLSYGEGDRHKFDLFLPEGTPVGLFVFVHGGYWMAFDKSSWSHLAVGALSKGWAVAMPSYELCPEVRISEITQQISQAVTAAAKEIDGPIVLAGHSAGGHLVARMLDPEVLPEAVGARIRNVVPISPLSDLRPLLRTSMNEKFKMDADAAIAESPVEMQNRYDAKVTVWVGGAERPAFLDQAIWLVEAWDADHVIAFEKHHFNVIEPLADPESDLVAVITA | soluble |
| GMFVQSALHQLKVAVDTSIQMLDQYTEIDLKIAPIQSKRSLFEMYAHLSLICHADLLILNGSTEKELHTFYKEQTPETIAQMQKTMIQGYDLLSKTFLSYSNEQLAEMKTAYWGISYSRFEWLLEIVAHFYHHRGQIHILLCEHMKDPNIPLFQ | soluble |
| GMGISNIKQLYSKWKSLQPLKPEDLKRWNDKFKLEFNYNSNHLEGNTLTYGQTKLLLMFGETSGNASLKDYEEMKAHNVGLEMIKQEAQDKERPLTESFIRELNRTILVQDYWKNAKTPDGQDIRMQIKVGEYKSRPNSVLTATGEVFSYASPEETPAFMTSLVDWYNLEADKGILTPVELAALLHYRYIRIHPFEDGNGRIARLLVNFVLHRYGYPMIVIHSEDKSNYLNILHQCDVEAGLTPSDGANATLNDILPFVNYLSSCLIRSLTLAIKAAKGESIEEEGDFDKK | soluble |
| GMHTDVNALFAALWQDYIKMTPSAAKIHQLLGHGAPIINDHIALRTFNIAKVNLSVLAKHFTSIGYVDSGDYKFEQKKLIAKHFEHPDPKQPKVFISELLVEEFSPEVQKSIHGLIDQVDIAATTADNFIYSGRHWDVDKATYQALLAESEYAAWVAALGYRANHFTVSINDLPEFERIEDVNQALKQAGFVLNSSGGEVKGSPEVLLEQSSTMADKVVVNFTDGDVEIPSCFYEFARRYPMANGQLYTGFVAASADKIFESTNAMM | soluble |
| GMINQERLVNEFMELVQVDSETKFEAEICKVLTKKFTDLGVEVFEDDTMAVTGHGAGNLICTLPATKDGVDTIYFTSHMDTVVPGNGIKPSIKDGYIVSDGTTILGADDKAGLASMFEAIRVLKEKNIPHGTIEFIITVGEESGLVGAKALDRERITAKYGYALDSDGKVGEIVVAAPTQAKVNAIIRGKTAHAGVAPEKGVSAITIAAKAIAKMPLGRIDSETTANIGRFEGGTQTNIVCDHVQIFAEARSLINEKMEAQVAKMKEAFETTAKEMGGHADVEVNVMYPGFKFADGDHVVEVAKRAAEKIGRTPSLHQSGGGSDANVIAGHGIPTVNLAVGYEEIHTTNEKIPVEELAKTAELVVAIIEEVAK | soluble |
| GMKRVLLLFDVDGTLTPPRLCQTDEMRALIKRARGAGFCVGTVGGSDFAKQVEQLGRDVLTQFDYVFAENGLLAYRNGLEIHRQSLLNALGNDRIVKFVKKTLRLIADLDIPVQRGTFVEYRNGMINVSPIGRNCSQAERDEFEVYDNEHRVRASLIAELENSFPDFGLKYSIGGQISFDVFPVGWDKTYCLQFVEDDFEEIHFFGDKTQEGGNDYEIYTDKRTIGHKVTSYKDTIAEVEKIIAMK | soluble |
| GMNISNLINADVDEKGFVSDKLRDNFFQIVRNRPENRTCFDCESRNPTWLSLSFAVFICLNCSSDHRKMGVHISFVRSSDLDKFTPIQLVRMDIGGNGRARNYFKQVLGVNFSPKTKEYASSICGRQYKQILDSEISE | soluble |
| GMNSGKVAFIVTKNGKRICDVIDECSQRGSTILKAQGGYKQDDIQVVMCACNSKEMYQVRKSVKDTDPDSFIVVVESHEVHGEGFKMTNIGEAEN | not soluble |
| GMPELAVQKVVVHPLVLLSVVDHFNRIGKVGNQKRVVGVLLGSWQKKVLDVSNSFAVPFDEDDKDDSVWFLDHDYLENMYGMFKKVNARERIVGWYHTGPKLHKNDIAINELMKRYCPNSVLVIIDVKPKDLGLPTEAYISVEEVHDDGTPTSKTFEHVTSEIGAEEAEEVGVEHLLRDIKDTTVGT | soluble |
| GMRKDDVVIVTCAITGAIHTPSMSPYLPVTPDQIVEEAVKAAEAGAGMVHIHARDPKDGRPTTDVEVFRYICREIKKQSDVVINVTTGGGGTLGIPVEERAKVVPALKPEIATFNMGSMNFAIHPLLKKYKEFKYDWEPEYLEMTRDIVFRNTFKDLEALSRIFKENDTKPELECYDIGQIYNTAFMFHEGYLEPPLRLQFIHGILGGIGTAVEDVLFMKQTADRLIGRENYTWSLVGAGRFQMPLGTLAVIMGGDVRVGLEDSLYIERGKLAKSNAEQVEKMVRIVKELGKRPATPDEVREILGLKGKERVNF | soluble |
| GMSENKKKFDKKGAKNMDEISKTLFAPIYPIIAENIINRFGITAGTCIDIGSGPGALSIALAKQSDFSIRALDFSKHMNEIALKNIADANLNDRIQIVQGDVHNIPIEDNYADLIVSRGSVFFWEDVATAFREIYRILKSGGKTYIGGGFGNKELRDSISAEMIRKNPDWKEFNRKNISQENVERFQNVLDEIGISSYEIILGDEGFWIIISKTDQEVI | soluble |
| GMSESPTAGRASLAPLREFITGLSALLDEQPGEARILREGGALLARLVARDDWLPDAFAQPHPEYYQQMLLHCDSAERFSIVSFVWGPGQRTPIHDHTVWGLIGMLRGAEYSQPFVLDGSGRPVLHGEPTRLEPGHVEAVSPTVGDIHRVHNAYDDRVSISIHVYGANIGGVRRSVYTEAGERKPFISGYSNPYLPNPWDRSKDSAAS | soluble |
| GMSGDSEVGTEAGLTLGGDGILRLTWPRGAAITAADAERAMLRVNQLCGDDRHPMLVDMATTADVSRGARAVFGRPCQASRIALLGSSPVDRVLANFFLGINAVPCPTKFFTSERDALTWLALT | soluble |
| GMSIIDLTKLEQKVATMWDSILTNSPFIHEVLDGKATKALYAIYMTETYHYTKHNAKNQALVGIMGKDLPGKYLSFCFHHAHEEAGHELMALSDIASIGFDREDVLSSKPLPATETLIAYLYWISATGNPVQRLGYSYWAENVYGYIDPVLKAIQSTLDLTPQSMKFFIAHSKIDAKHAEEVNEMLHEVCKTQEDVDSVVAVMENSLVLTARILDDVWKEYQLFQSGASDRYAFLRDNA | soluble |
| GMSSSGIEIAKPFVTATTNVLSTMAGIQPIPGQPYVKKNNVAKGDVSAVVGITGHKNGSISVTFTKQCAIAVVKAMLGDDIQDIIQDTKDAVGEVTNMISGQARAALSEMGMTFQGATPSVIMGDGHTISHVTKSPVIAIPFKTNHGEFTVEFCLE | soluble |
| GMTGHIDPTKEVFAQFRANDREGPIHMLNLVRLRPRAAYPDGRETTGAEAYAAYGRDSGPVSERLGGKVVWQGQFELMLIGPQDEHWDHVFIAEYPSVAAFVEMIRDPVYREAVKHRQAAVEDSRLIRLKPLKPGKGFGEIPT | soluble |
| GMTQHLTIAQTYLAAWNEEDNERRRHLVGQAWAENTRYVDPLMQGEGQQGIAAMIEAARQKFPGYRFVLAGTPDGHGNFTRFSWRLISPDGDDVAGGTDVVSLNTEGRIDNVVGFLDGAVS | soluble |
| GMTSRSPFESFVWQSEIFNCQSNDIDAFYAQLAEEVNRLGLKKNTLGSVDSFAINLYQSASQRSDLPSLLISSGFHGEEAAGPWGMLHFLRGLQPALFERVNLSLLPLVNPTGFKAGHRFNRFGENPNRGFTLENGKPTPNEHTSLEGKLLLEHAQLLCAASRDGILTCHEDVLMNETYVYSFEPTQTPGRFSLGLRDALGQYFKLAKDGFIDECPVTDGVIFNHFDTSFEAFLVRSGAKLAACSETPGQEDFDRRVQANSAAMGQFIAHCAPIL | soluble |

— the DeepSol protein solubility set
